Laboratory results: US20240207429A1, “LINKERS, DRUG LINKERS AND CONJUGATES THEREOF AND METHODS OF USING THE SAME” (ProfoundBio US Co., priority 2021, published 2024)

System: Hela cells
Assay: Flow cytometry binding to Hela cells
Assay type: cell-based
Settings: transfection supernatants, FIG. 6
Procedure: The binding activity of the antibodies to Hela cells (ATCC@ CCL-2, provided by COBIOER) and to RPTEC/TERT1 cells (ATCC@ CRL-4031, provided by COBIOER) was tested by flow cytometry using the transfection supernatants. Briefly, target cells were digested with 0.02% EDTA-2Na, centrifuged at 1500 rpm for 3 mins, and resuspended with PBS. After counting, the cells were added to a 1.5 ml centrifuge tube with 1×10^6 cells per tube, centrifuged at 1500 rpm for 5 minutes, and the supernatant was discarded. Then all the operations were carried out on an ice bath. 100 μL of transfection supernatant was added to each 1.5 ml centrifuge tube. Blank cells, blank cells plus secondary antibody, medium and HEK293 supernatant were set up as the controls. The reaction was performed on an ice bath for 1 hour. Then the cells were pelleted and washed twice with PBS. The secondary antibody, goat anti-Human IgG (PE, abcam, ab98596), was diluted (1:200) and added using 100 μL per tube. The reaction was performed on an ice bath for 1 hour in the dark. The cells were pelleted again and washed twice with PBS, resuspended in 300 μL PBS, and FL2 fluorescence readings were measured by cytometry. The results were analyzed by FlowJo™10 software.
Anti-FOLR1 antibody binding to Hela and RPTEC/TERT1 cells was tested by FACS. The study was carried out as described above. […]

B1: F40: Anti-FOLR1 antibody clone: "Clone F40 has a different HCDRs and LCDRs, and with different HFR and LFR" (antibody, V domains shown)
VH: EVQLLESGGGVVQPGRSLRLSCAASGFTFSSYAMHWVRQAPGKGLEWVAVISYDGSNKYYADSVKGRFIISRDNSKNTVYLQMNSLRAEDTAVYYCARPTYVFTYTGSSFDYWGQGTQVTVSS
VL: DIQVTQSPSSLSASLGDTVSITCRASRGLTDSVAWYQQKPGQAPKLLIYAASTLQSGVPSRFGGSGSGSYFTLTITSLQPEDVATYYCQNYKSAPWTFGQGTKVEIK
  Hela cell binding: weakly positive
